This test has as its target T1, Escherichia coli uracil-DNA glycosylase (Escherichia coli, UniProt P12295 1-229).
T1 sequence: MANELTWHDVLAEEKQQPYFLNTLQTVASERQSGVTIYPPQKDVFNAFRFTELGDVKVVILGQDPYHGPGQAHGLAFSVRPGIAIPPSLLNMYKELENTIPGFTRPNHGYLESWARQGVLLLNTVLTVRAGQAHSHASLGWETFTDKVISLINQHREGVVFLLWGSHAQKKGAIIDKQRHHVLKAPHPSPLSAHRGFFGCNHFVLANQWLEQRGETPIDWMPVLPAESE
The test is described as follows: native gel or EMSA.

B1: Ugi from the Bacillus subtilis phage PBS2 (natural protein)
chain: MTNLSDIIEKETGKQLVIQESILMLPEEVEEVIGNKPESDILVHTAYDESTDENVMLLTSDAPEYKPWALVIQDSNGENKIKML
With B1, the binding result was “binds”.

Source of the values: paper PMC2018632 (Nucleic Acids Research, 2007).
